Measured values: patent US20250026849A1 (ARCELLX, published 2025)

T1: CD123 (Homo sapiens (Human), UniProt P26951 19-305, limits assumed)
T1 construct: The CD123 construct used in the ELISA is not described; also called CD123-Signal
T1 sequence: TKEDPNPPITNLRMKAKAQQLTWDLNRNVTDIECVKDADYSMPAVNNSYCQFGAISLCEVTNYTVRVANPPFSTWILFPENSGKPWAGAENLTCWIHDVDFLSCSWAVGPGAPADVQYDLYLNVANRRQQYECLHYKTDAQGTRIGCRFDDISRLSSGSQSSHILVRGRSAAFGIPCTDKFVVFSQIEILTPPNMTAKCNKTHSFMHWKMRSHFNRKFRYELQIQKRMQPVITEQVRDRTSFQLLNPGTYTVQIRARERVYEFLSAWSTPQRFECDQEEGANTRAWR


Molecular target: T1, CD123
Experiment: ELISA
Set-up: unit not given here

| Binder | ELISA_avg |
| --- | --- |
| D domain of SEQ ID NO: 478 (designed binder) MGSWMFFKEDLADIKWALEALGGSEAELAFFEEEIALFEQHLQQYKGKGNPEVEALRKEAAAIRDELQAYRHN | 3.2 |
| D domain of SEQ ID NO: 434 (designed binder) MGSWQEFTMRLDAIYNRLETLGGSEAELAAFEKEIAAFESELQAYKGKGNPEVEWLRQSAANIRSELQAYRHN | 13.7 |
| D domain of SEQ ID NO: 472 (designed binder) MGSWQWFKDDLAYIKETLEALGGSEAELALFEDMIADFEFELQWYKGKGNPEVEALRKEAAAIRDELQAYRHN | 6.3 |
| D domain of SEQ ID NO: 477 (designed binder) MGSWYWFKDDLAEIKGLLEALGGSEAELAEFEDEIAVFEQELQEYKGKGNPEVEALRKEAAAIRDELQAYRHN | 10.4 |
| D domain of SEQ ID NO: 476 (designed binder) MGSWGYFKDDLAWIKGELEALGGSEAELAEFEWFIAVFEEDLQVYKGKGNPEVEALRKEAAAIRDELQAYRHN | 4.5 |
| D domain of SEQ ID NO: 474 (designed binder) MGSWIVFKDDLADIKRWLEALGGSEAELAMFEDEIADFEWQLQDYKGKGNPEVEALRKEAAAIRDELQAYRHN | 3.9 |
| D domain of SEQ ID NO: 426 (designed binder) MGSWWEFEERLWAIDYRLHALGGSEAELAAFEKEIAAFESELQAYKGKGNPEVEMLRSWAAEIRALLQAYRHN | 4.1 |
| D domain of SEQ ID NO: 494 (designed binder) MGSWVTFKDELADIKDFLEALGGSEAELAFFEVDIAEFEAELQFYKGKGNPEVEALRKEAAAIRDELQAYRHN | 7.6 |
| D domain of SEQ ID NO: 496 (designed binder) MGSWETFKYELAEIKDYLEALGGSEAELAWFEDDIAEFEFELQYYKGKGNPEVEALRKEAAAIRDELQAYRHN | 4.4 |
| D domain of SEQ ID NO: 470 (designed binder) MGSWWLFKDDLAEIKYWLEALGGSEAELAFFEDDIAEFERGLQIYKGKGNPEVEALRKEAAAIRDELQAYRHN | 3.3 |
| D domain of SEQ ID NO: 481 (designed binder) MGSWTFFKNDLAEIKDWLEALGGSEAELADFEWDIAEFEYSLQEYKGKGNPEVEALRKEAAAIRDELQAYRHN | 3.9 |
| D domain of SEQ ID NO: 473 (designed binder) MGSWILFKDDLAWIKETLEALGGSEAELAFFEDNIADFEEQLQGYKGKGNPEVEALRKEAAAIRDELQAYRHN | 6 |
| D domain of SEQ ID NO: 471 (designed binder) MGSWYEFKDDLAEIKEWLEALGGSEAELAFFELDIADFEWLLQLYKGKGNPEVEALRKEAAAIRDELQAYRHN | 3.8 |
| D domain of SEQ ID NO: 482 (designed binder) MGSWTYFKDDLADIKQWLEALGGSEAELAFFEIEIAEFEEELQEYKGKGNPEVEALRKEAAAIRDELQAYRHN | 4.6 |
| D domain of SEQ ID NO: 479 (designed binder) MGSWTFFKEDLAGIKWELEALGGSEAELAWFEDEIALFEEELQEYKGKGNPEVEALRKEAAAIRDELQAYRHN | 7 |
| D domain of SEQ ID NO: 480 (designed binder) MGSWVFFKDDLADIKDELEALGGSEAELAFFEIAIALFEWELQEYKGKGNPEVEALRKEAAAIRDELQAYRHN | 8.8 |
| D domain of SEQ ID NO: 467 (designed binder) MGSWFYFKDDLADINYMLEALGGSEAELAMFEDDIAGFELTLLKYKGKGNPEVEALRKEAAAIRDELQAYRHN | 3.7 |
| D domain of SEQ ID NO: 429 (designed binder) MGSWVEFEERLEAIEERLFALGGSEAELAAFEKEIAAFESELQAYKGKGNPEVEWLRDDAANIRHWLQAYRHN | 3.8 |
| D domain of SEQ ID NO: 431 (designed binder) MGSWSEFEHRLEAIESRLFALGGSEAELAAFEKEIAAFESELQAYKGKGNPEVEDLRSEAAWIREQLQAYRHN | 7.6 |
| D domain of SEQ ID NO: 425 (designed binder) MGSWTEFWERLNAIDERLFALGGSEAELAAFEKEIAAFESELQAYKGKGNPEVEWLRLYAAEIRSELQAYRHN | 4 |
| D domain of SEQ ID NO: 432 (designed binder) MGSWFEFWERLDAIEWRLWALGGSEAELAAFEKEIAAFESELQAYKGKGNPEVEELRSTAADIRRYLQAYRHN | 3.4 |
| D domain of SEQ ID NO: 465 (designed binder) MGSWFEFYERLDAINWRLFALGGSEAELAAFEKEIAAFESELQAYKGKGNPEVEALRGEAAAIREDLQAYRHN | 3 |
| D domain of SEQ ID NO: 433 (designed binder) MGSWFEFWGRLEAIESRLKALGGSEAELAAFEKEIAAFESELQAYKGKGNPEVEELREHAAWIRAYLQAYRHN | 4.9 |
| D domain of SEQ ID NO: 466 (designed binder) MGSWNEFEDRLDAIWWRLFALGGSEAELAAFEKEIAAFESELQAYKGKGNPEVEALRVEAAFIRTMLQAYRHN | 5.1 |
| D domain of SEQ ID NO: 468 (designed binder) MGSWHFFKDDLAWIKNELEALGGSEAELAMFEDDIAMFETMLQSYKGKGNPEVEALRKEAAAIRDELQAYRHN | 3.2 |
| D domain of SEQ ID NO: 469 (designed binder) MGSWHWFKTDLADIKEELEALGGSEAELAMFEDDIAEFEEFLQMYKGKGNPEVEALRKEAAAIRDELQAYRHN | 3.5 |
| D domain of SEQ ID NO: 475 (designed binder) MGSWGHFKQDLAWIKDTLEALGGSEAELAFFEDDIAMFEMELQDYKGKGNPEVEALRKEAAAIRDELQAYRHN | 4.9 |

More lines, now with the values ahead:

| ELISA_avg | Binder |
| --- | --- |
| 3.8 | D domain of SEQ ID NO: 486 (designed binder) MGSWSFFKEELANIQVYLEALGGSEAELAWFEEDIADFEEDLQHYKGKGNPEVEALRKEAAAIRDELQAYRHN |
| 3.4 | D domain of SEQ ID NO: 487 (designed binder) MGSWEFFKYELADIKDELEALGGSEAELAWFEEDIATFEEWLQGYKGKGNPEVEALRKEAAAIRDELQAYRHN |
| 8.2 | D domain of SEQ ID NO: 500 (designed binder) MGSWEFFKEVLAEIKYDLEALGGSEAELAWFETDIAGFEIDLQVYKGKGNPEVEALRKEAAAIRDELQAYRHN |
| 3.3 | D domain of SEQ ID NO: 490 (designed binder) MGSWNSFKDELAEIKAELEALGGSEAELAFFEEDIAWFEEHLQQYKGKGNPEVEALRKEAAAIRDELQAYRHN |
| 3.4 | D domain of SEQ ID NO: 491 (designed binder) MGSWDLFKWELAEIKLGLEALGGSEAELAEFEYDIAWFEEDLQDYKGKGNPEVEALRKEAAAIRDELQAYRHN |
| 4.6 | D domain of SEQ ID NO: 495 (designed binder) MGSWVYFKDELADIKDFLEALGGSEAELAEFEEDIATFEYDLQWYKGKGNPEVEALRKEAAAIRDELQAYRHN |
| 5 | D domain of SEQ ID NO: 497 (designed binder) MGSWNTFKYELAEIKHFLEALGGSEAELAMFEDDIAMFEWELQEYKGKGNPEVEALRKEAAAIRDELQAYRHN |
| 3.3 | D domain of SEQ ID NO: 484 (designed binder) MGSWYWFKQDLAHIKSMLEALGGSEAELAWFEEDIADFESELQEYKGKGNPEVEALRKEAAAIRDELQAYRHN |
| 3.8 | D domain of SEQ ID NO: 492 (designed binder) MGSWIFFKQDLAEIKLNLEALGGSEAELAWFEDDIAWFESHLQDYKGKGNPEVEALRKEAAAIRDELQAYRHN |
| 5.5 | D domain of SEQ ID NO: 488 (designed binder) MGSWQTFKDELAHIKWELEALGGSEAELAWFEWDIANFEEELQEYKGKGNPEVEALRKEAAAIRDELQAYRHN |
| 9.4 | D domain of SEQ ID NO: 489 (designed binder) MGSWYWFKEELAFIKWELEALGGSEAELALFEEDIAYFEEMLQEYKGKGNPEVEALRKEAAAIRDELQAYRHN |
| 4.8 | D domain of SEQ ID NO: 485 (designed binder) MGSWTFFKWDLADIKANLEALGGSEAELAWFEEDLAGFEAELQEYKGKGNPEVEALRKEAAAIRDELQAYRHN |
| 9.9 | D domain of SEQ ID NO: 498 (designed binder) MGSWYVFKDELAEIKQFLEALGGSEAELAWFEDDIAEFETQLQHYKGKGNPEVEALRKEAAAIRDELQAYRHN |
| 4 | D domain of SEQ ID NO: 493 (designed binder) MGSWHLFKWTLAEIKYELEALGGSEAELAWFEDDIATFEEELQWYKGKGNPEVEALRKEAAAIRDELQAYRHN |
| 3.9 | D domain of SEQ ID NO: 483 (designed binder) MGSWTVFKYDLADIKWWLEALGGSEAELADFEEEIAEFEEELQEYKGKGNPEVEALRKEAAAIRDELQAYRHN |
| 15 | D domain of SEQ ID NO: 499 (designed binder) MGSWIFFKEQLAIIKWELEALGGSEAELAWFEDDIAAFEDDLQFYKGQGNPEVEALRKEAAAIRDELQAYRHN |
